# Measured values from doi:10.1101/2021.12.29.474488 (bioRxiv, 2021).
# B1: MgtE transmembrane (TM) domain from Thermus thermophilus (domain or fragment, T. thermophilus, UniProt Q5SMG8 268-450, looked up)
# chain: VPDLVYSEAGPVALWLARVRWLVILILTGMVTSSILQGFESVLEAVTALAFYVPVLLGTGGNTGNQSATLIIRALATRDLDLRDWRRVFLKEMGVGLLLGLTLSFLLVGKVYWDGHPLLLPVVGVSLVLIVFFANLVGAMLPFLLRRLGVDPALVSNPLVATLSDVTGLLIYLSVARLLLEAV
# How the values were obtained:
# [1] = target: MgtE T336C/L421C mutant lacking the N domain (T. thermophilus) (UniProt Q5SMG8); assay: cross-linking
# crystal structure = target: the molecule itself; assay: crystal structure
Molecule,stoichiometry N [1],binding result (crystal structure)
MgtE T336C/L421C mutant lacking the N domain (from UniProt Q5SMG8 130-450) (domain or fragment),2,
B1,,binds
